In the experiment the target is Full-length HIV-1 YU2 gp120 (HIV-1 YU2, UniProt P35961 32-498). As to the kind of experiment: ELISA. (In general: ELISA stands for enzyme-linked immunosorbent assay.)

Numbered stars: 1 amine (or outer) side, 2 acyl side, 3 side chain; on linkers, the order of the positions; unused ones are H or OH. Square brackets hold non-standard residues; d marks the D form. Ends that are not written are not given here. X3 = Pro(4S-(4-(4-aminophenyl)-1,2,3-triazol-1-yl)), O=C([C@@H]1C[C@H](n2cc(-c3ccc(N[*:3])cc3)nn2)CN1[*:1])[*:2]; Cit = NC(=O)NCCC[C@H](N)C(=O)O

What is called IC50 is the midpoint of a concentration-inhibition curve. Read a high IC50 as lower potency. [Cit]NNI[X3]WS-NH2 [UM25 peptide triazole] came in with an IC50 of 18 µM.

The record behind these values is PMC3800186 (Biochemistry, 2013).
